In experiment [1] the target is T1, human BAFF (UniProt Q9Y275 82-285). The experiment can be described thus: competitive SPR; interaction observed, curve not fitted adequately.
Experiment [2] has as its target T2, TRX-APRIL (mouse, UniProt Q9D777 104-241).
T2 chain: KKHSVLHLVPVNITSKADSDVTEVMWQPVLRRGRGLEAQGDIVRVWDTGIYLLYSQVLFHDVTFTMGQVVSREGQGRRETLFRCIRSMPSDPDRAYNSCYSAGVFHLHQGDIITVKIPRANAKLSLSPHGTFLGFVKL
The experiment can be described thus: competitive SPR (BCMA-Fc).

Experiment [3] addresses T1, human BAFF. The experiment can be described thus: competitive SPR.
Experiment [4] has as its target T2, TRX-APRIL. The experiment can be described thus: competitive SPR.
Experiment [5] deals with T1, human BAFF. Description: competitive SPR. This is another data set of the same source.

Results on three molecules are retold here after patent publication US20080181886A1 (published 2008).

Ends that are not written are not given here.

T1 sequence (Q9Y275 82-285): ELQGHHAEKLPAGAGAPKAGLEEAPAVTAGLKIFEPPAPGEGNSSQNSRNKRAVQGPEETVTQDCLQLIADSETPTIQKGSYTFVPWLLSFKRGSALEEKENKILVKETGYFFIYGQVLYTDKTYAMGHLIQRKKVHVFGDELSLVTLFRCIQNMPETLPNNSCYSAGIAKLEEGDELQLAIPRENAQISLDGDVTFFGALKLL

B1: TACI_d1 (first CRD of TACI, residues 32-67) (receptor)
chain: RSCPEEQYWDPLLGTCMSCKTICNHQSQRTCAAFCR
modifications: disulfide (positions not given here); also: more than one disulfide-bonded isomer, pairings not given here
With B1, the IC50 with human BAFF [1] is over 100 nM; with TRX-APRIL [2] it was 2000 nM.

B2: TACI_d1d2 (residues 21-116 of the TACI extracellular domain, C-terminal His-tag) (receptor)
chain: FPQGLWTGVAMRSCPEEQYWDPLLGTCMSCKTICNHQSQRTCAAFCRSLSCRKEQGKFYDHLLRDCISCASICGQHPKQCAYFCENKLRSPVNLPP
For the molecule B2, the IC50 with human BAFF [3] is 1.3 nM; with TRX-APRIL [2], 11 nM.

As for GSPWSLSCRKEQGKFYDHLLRDCISCASICGQHPKQCAYFCENKLR (receptor) [TACI_d2 (second cysteine-rich domain, CRD2, residues 68-109 of human TACI)], the IC50 with human BAFF [3] was 1.8 nM; with TRX-APRIL [4], 3.2 nM; with human BAFF [5], 4 nM.

By IC50 is commonly meant the concentration that inhibits the measured activity by half. The low end stands for higher potency, the high end for lower potency.
